Data as given in patent publication US20220332804A1 (CSL INNOVATION, published 2022).

How the values were obtained:
Test in all cases: SPR, KD relative to WT C2;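 also: biacore SPR at 37 °C, anti-C2 mAbs captured via immobilised goat anti-human IgG, C2 alanine or serine surface mutants as analytes, 1:1 model fitted, double-referenced sensograms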
human C2 K721A = biological target: T1, human C2 K721A (human, UniProt P06681 21-752)
T1 sequence: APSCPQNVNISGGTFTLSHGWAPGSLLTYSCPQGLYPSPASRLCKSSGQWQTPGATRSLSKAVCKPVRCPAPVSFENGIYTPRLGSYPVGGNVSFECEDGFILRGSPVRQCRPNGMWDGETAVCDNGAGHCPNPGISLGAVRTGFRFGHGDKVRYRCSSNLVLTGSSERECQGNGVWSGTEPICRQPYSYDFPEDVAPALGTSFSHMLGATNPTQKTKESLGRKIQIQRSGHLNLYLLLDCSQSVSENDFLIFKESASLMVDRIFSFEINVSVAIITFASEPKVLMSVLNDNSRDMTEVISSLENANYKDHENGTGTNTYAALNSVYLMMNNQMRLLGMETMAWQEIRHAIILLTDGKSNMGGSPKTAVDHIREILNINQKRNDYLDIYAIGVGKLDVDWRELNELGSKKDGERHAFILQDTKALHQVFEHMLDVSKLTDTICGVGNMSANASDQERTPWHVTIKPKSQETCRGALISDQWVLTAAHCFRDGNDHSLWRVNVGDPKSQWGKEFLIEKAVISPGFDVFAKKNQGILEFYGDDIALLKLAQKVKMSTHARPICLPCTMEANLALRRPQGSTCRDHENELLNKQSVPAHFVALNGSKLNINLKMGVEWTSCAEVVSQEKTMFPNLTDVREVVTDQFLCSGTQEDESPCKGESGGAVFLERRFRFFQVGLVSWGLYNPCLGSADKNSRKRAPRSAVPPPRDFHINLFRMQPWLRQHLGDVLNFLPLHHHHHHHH
Experimental: (§1) Surface plasmon resonance (SPR, Biacore) was used for all binding affinity analyses. In brief, goat anti-human IgG was directly immobilised onto the carboxymethyl dextran surface of CM5 sensorchips to approximately 12,000 RU using standard NHS/EDC chemistry at pH 5. The immobilised antibody surface was pre-conditioned with ten injections of polyclonal human IgG (Privigen 60 s) prepared at 1 μg/mL. Ligands (anti-C2 mAbs) were captured at the beginning of each cycle as described below. An adjacent spot or flow cell in which only Polyclonal IgG was capture was used as a reference surface. The goat anti-human IgG Fc antibody surface was regenerate in 100 mM H3PO4, injected for 45 seconds at the end of each cycle. Experiments were performed at 37° C. and the flow rate of each experiment was kept constant at 30 μL/min.
(§2) Sensogram data was double-referenced against a reference anti-IgG surface (i.e. minus anti-C2 mAb) and blank buffer injections obtained within each experiment. The binding data was fit to 1:1 (kinetic or steady-state) model using local Rmax and null refraction index (RI=0) when appropriate. Buffers and solutions were filtered (0.22 μm) prior to use.

human C2 H446A = biological target: T2, human C2 H446A (human, UniProt P06681 21-752)
T2 sequence: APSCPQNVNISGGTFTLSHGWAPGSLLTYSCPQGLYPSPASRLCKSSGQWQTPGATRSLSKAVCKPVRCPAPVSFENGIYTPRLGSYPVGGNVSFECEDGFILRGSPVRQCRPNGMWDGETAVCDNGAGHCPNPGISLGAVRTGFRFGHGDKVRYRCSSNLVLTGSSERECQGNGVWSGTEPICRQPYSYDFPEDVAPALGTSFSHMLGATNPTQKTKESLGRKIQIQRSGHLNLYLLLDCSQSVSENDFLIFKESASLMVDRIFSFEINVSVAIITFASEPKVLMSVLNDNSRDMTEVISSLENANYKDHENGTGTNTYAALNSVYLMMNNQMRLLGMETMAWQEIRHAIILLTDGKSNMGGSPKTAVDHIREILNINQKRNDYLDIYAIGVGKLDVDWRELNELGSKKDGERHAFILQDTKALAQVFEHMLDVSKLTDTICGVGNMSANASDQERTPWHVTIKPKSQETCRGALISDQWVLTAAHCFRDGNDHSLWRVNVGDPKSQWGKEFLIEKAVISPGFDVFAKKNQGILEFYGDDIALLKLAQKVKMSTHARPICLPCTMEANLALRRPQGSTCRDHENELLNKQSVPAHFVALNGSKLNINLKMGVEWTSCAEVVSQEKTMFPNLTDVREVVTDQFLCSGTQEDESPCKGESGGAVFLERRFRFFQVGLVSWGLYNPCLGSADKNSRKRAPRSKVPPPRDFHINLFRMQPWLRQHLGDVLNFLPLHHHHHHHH
Experimental: as §1, §2

human C2 T647A = biological target: T3, human C2 T647A (human, UniProt P06681 21-752)
T3 sequence: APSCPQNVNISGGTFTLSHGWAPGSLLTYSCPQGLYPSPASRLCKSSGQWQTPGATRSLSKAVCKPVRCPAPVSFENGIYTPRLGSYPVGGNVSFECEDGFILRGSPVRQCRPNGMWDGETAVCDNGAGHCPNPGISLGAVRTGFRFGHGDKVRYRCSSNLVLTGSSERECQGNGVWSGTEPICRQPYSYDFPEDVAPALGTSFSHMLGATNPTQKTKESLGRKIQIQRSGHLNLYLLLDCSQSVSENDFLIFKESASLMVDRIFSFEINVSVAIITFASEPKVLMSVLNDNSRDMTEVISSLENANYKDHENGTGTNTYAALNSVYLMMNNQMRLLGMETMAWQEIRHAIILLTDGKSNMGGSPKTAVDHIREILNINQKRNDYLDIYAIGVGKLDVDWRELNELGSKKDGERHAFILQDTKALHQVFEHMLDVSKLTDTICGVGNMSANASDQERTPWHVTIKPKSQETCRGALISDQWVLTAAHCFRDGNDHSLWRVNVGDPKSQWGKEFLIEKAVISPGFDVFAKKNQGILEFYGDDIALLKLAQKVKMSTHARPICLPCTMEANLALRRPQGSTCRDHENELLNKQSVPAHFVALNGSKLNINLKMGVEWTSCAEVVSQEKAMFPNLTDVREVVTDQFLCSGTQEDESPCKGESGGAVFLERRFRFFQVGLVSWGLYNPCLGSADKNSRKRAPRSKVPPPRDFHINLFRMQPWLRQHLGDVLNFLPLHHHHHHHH
Experimental: as §1, §2

human C2 M648A = biological target: T4, human C2 M648A (human, UniProt P06681 21-752)
T4 sequence: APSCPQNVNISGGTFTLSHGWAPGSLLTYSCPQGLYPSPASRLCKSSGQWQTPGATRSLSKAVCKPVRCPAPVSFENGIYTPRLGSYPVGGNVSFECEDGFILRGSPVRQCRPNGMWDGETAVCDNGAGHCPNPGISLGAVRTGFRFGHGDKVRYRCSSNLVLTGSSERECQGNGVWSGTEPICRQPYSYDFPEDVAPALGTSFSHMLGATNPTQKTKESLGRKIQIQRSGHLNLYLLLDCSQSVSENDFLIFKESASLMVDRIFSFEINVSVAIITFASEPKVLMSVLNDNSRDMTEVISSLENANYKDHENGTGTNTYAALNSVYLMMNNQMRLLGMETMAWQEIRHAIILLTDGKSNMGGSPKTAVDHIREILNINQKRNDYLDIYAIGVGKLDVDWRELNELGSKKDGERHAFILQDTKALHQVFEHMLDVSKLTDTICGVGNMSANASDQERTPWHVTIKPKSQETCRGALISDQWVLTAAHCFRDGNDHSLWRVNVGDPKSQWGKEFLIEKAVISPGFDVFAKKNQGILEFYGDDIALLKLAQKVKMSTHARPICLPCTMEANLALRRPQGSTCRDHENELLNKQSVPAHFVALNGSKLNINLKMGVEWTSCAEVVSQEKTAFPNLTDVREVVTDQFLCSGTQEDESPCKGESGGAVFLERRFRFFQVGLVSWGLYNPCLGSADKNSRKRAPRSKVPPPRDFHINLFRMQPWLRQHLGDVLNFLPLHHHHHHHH
Experimental: as §1, §2

B1: RF16-226 (antibody, human IgG4 S228P, lambda)
heavy: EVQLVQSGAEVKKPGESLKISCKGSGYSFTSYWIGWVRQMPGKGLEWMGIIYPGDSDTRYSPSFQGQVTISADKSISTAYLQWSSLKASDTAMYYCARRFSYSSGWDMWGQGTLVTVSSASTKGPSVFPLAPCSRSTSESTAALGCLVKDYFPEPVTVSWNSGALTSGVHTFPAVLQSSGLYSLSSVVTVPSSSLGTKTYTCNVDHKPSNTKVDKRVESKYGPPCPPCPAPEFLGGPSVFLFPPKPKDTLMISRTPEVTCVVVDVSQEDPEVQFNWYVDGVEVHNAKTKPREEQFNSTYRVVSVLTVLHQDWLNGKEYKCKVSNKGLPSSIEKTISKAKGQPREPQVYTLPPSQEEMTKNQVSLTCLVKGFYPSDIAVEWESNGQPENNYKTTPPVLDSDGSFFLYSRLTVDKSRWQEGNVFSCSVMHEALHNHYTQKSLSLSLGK
light: SYELTQPPSVSVSPGQTARITCSGDALTSKYVAWYQQKSGLAPLLVIYEDTRRPSGIPAKFSGSSSGSVATLTISGAHGDDEADYYCYSTDASGHQRVFGGGTKLTVLSQPKAAPSVTLFPPSSEELQANKATLVCLISDFYPGAVTVAWKADGSPVKAGVETTKPSKQSNNKYAASSYLSLTPEQWKSHRSYSCQVTHEGSTVEKTVAPTECS
notes: pH-dependent anti-C2 antibody from a phage display library; also called WT
B1 gave a Fold diff (human C2 K721A) of 10 fold, a Fold diff (human C2 H446A) of 2 fold and a Fold diff (human C2 T647A) of 15 fold. The Fold diff (human C2 M648A) was 20 fold.
